The source of these data is US20040047873A1 (published 2004).

B1: murine CD40-human Fc fusion protein (Fc fusion, mouse, UniProt P27512 20-193, looked up)
chain: LGQCVTCSDKQYLHDGQCCDLCQPGSRLTSHCTALEKTQCHPCDSGEFSAQWNREIRCHQHRHCEPNQGLRVKKEGTAESDTVCTCKEGQHCTSKDCEACAQHTPCIPGFGVMEMATETTDTVCHPCPVGFFSNQSSLFEKCYPWTSCEDKNLEVLQKGTSQTNVICGLKSRMR
notes: captured on immobilised anti-human Fc mAb in the BIAcore assay; also called CD40-Fc; not shown: human immunoglobulin Fc
B2: soluble trimeric CD154 (tCD154) (ligand, human;mouse, UniProt P35247 223-257, looked up)
chain: DVASLRQQVEALQGQVQHLQAAFSQYKKVELFPNGLDKVEEEVNLHEDFVFIKKLKRCNKGEGSLSLLNCEEMRRQFEDLVKDITLNKEEKKENSFEMQRGDEDPQIAAHVVSEANSNAASVLQWAKKGYYTMKSNLVMLENGKQLTVKREGLYYVYTQVTFCSNREPSSQRPFIVGLWLKPSSGSERILLKAANTHSSSQLCEQQSVHLGGVFELQAGASVFVNVTEASQVIHRVGFSSFGLLKL
notes: range 223-257;range 50-260; Expressed in CHO-K1 with the rat CD4 leader (secretion signal, left out here); Non-covalent homotrimer, apparent mass ~100 kDa by size exclusion; also called trimeric form of CD154

Assay [1] has as its target B1. The assay is described as follows: BIAcore; CD40-Fc captured on anti-human Fc mAb, SP-D-CD154 injected.
Assay [2] addresses B1. The assay is described as follows: BIAcore; CD40-Fc captured on anti-human Fc mAb, SP-D-CD154 injected at 31.3-250 nM; apparent affinity.
In assay [3] the target is B1. The assay is described as follows: BIAcore; dissociation half-time from captured CD40-Fc. The procedure: (§1) The lower activity of tCD154 when compared with SP-D-CD154 could be the result of its relatively low affinity for CD40. To address this question the inventors analysed the affinity and kinetics of the interaction between tCD154 or SP-D-CD154 and CD40 using the BIAcore™ biosensor, which measures protein-protein interaction in real time. A murine anti-human Fc mAb was covalently coupled to the dextran matrix, and either tCD154 or SPD-CD154 was then injected over this mAb in order to determine the level of non-specific binding. Specific binding was determined by first injecting murine CD40-human Fc fusion protein which bound to the immobilised anti-human Fc mAb, and then injecting (31.3-250 nM) tCD154 or SPD-CD154 (FIG. 6). Co-injection of the anti-CD154 mAb MR1 and tCD154 or SP-D-CD154 completely abolished the binding of tCD154 or SP-D-CD154 to CD40 (data not shown). […] SP-D-CD154 can potentially bind to twelve CD40 molecules, compared to three molecules with tCD154 [9], implying that the extent of receptor oligomerisation may influence the signals generated by CD40. Within the X-shaped SP-D molecule, the adjacent arms are separated by a distance of either ˜20 nm or ˜90 nm (FIG. 1A). Thus if all four arms of SP-D-CD154 engage cell surface-expressed CD40, two clusters are likely to form each with six closely associated CD40 molecules.

In assay [4] the target is T1, CD40 on murine splenic B cells (mouse, UniProt P27512 20-289).
T1 sequence (looked up): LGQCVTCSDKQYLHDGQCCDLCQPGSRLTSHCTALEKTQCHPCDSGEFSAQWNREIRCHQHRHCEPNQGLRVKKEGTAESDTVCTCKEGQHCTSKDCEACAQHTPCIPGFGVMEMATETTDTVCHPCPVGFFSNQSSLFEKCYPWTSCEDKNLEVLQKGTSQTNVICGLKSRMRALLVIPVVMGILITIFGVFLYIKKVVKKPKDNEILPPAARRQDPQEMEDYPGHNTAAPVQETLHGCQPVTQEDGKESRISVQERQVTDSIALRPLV
Description: cell-based or functional assay.

For assay [5], the target named is B2. Description: BIAcore; CD40-Fc captured on anti-human Fc mAb, tCD154 injected. On the procedure:
as §1
(In general: SPR reads the build-up and loss of mass on a sensor chip optically.)

The target of assay [6] is B2. The assay is described as follows: BIAcore; CD40-Fc captured on anti-human Fc mAb, tCD154 injected at 31.3-250 nM; apparent affinity. On the procedure: as §1

For orientation: koff means the first-order rate constant of dissociation. A high value points to fast dissociation. “SP-D-CD154 dodecameric fusion protein between lung surfactant protein-D and CD154 (from UniProt P35247 1-257; P27548 50-260) (ligand)”: the koff in assay [1] came to 0.00014 s⁻¹. Further, the Kd in assay [2] is 1.3 nM. Moreover, the t1/2 in assay [3] came out at 1.38 h. In addition, in assay [4], the fold increase in the level of CD86 on B cells against untreated cells (5 nM, 24 h) was 3.6 fold; the fold increase in the level of ICAM-1 on B cells against untreated cells (5 nM, 24 h) came to 3.8 fold; the in vitro B cell proliferation assay was 2 µg/mL; the mean forward scatter of B cells (size and activation status) stood at 409. Moreover, in assay [4], the proliferation of murine splenic B cells ([3H] thymidine incorporation) amounted to 8 fold.
As to B1, the koff in assay [5] worked out at 0.00018 s⁻¹. In assay [6], the Kd amounted to 2 nM.
Regarding B2, the t1/2 in assay [3] was ~1.07 h. Further, in assay [4], the “fold increase in the level of CD86 on B cells against untreated cells (5 nM, 24 h)” value was 1.4 fold and the “fold increase in the level of ICAM-1 on B cells against untreated cells (5 nM, 24 h)” value worked out at 2 fold.
